T1: His-ORP1L(336-950aa) (UniProt Q9BXW6-1 336-950)
T1 construct: source: prokaryotic expressed, purified
T1 sequence (looked up): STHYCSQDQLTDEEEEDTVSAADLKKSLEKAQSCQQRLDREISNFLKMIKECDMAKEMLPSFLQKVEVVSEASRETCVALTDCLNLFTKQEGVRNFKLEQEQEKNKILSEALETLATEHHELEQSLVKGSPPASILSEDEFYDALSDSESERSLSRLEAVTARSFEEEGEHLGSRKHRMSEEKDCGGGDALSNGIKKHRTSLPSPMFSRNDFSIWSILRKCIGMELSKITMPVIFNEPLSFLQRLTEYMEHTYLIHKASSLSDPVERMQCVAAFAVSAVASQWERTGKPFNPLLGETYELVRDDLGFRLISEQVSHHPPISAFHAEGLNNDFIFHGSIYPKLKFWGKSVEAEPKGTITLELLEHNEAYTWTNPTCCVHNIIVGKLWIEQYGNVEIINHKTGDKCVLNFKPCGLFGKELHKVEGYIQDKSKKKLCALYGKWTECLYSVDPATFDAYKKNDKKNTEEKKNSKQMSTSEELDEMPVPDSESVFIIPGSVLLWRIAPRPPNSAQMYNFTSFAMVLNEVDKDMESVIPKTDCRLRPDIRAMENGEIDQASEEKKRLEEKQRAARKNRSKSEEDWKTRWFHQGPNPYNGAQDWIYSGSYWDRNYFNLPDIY

T2: His-ORP1L (UniProt Q9BXW6-1 1-950)
T2 construct: ORP1L in pET-28a; source: prokaryotic expressed, purified
T2 sequence (looked up): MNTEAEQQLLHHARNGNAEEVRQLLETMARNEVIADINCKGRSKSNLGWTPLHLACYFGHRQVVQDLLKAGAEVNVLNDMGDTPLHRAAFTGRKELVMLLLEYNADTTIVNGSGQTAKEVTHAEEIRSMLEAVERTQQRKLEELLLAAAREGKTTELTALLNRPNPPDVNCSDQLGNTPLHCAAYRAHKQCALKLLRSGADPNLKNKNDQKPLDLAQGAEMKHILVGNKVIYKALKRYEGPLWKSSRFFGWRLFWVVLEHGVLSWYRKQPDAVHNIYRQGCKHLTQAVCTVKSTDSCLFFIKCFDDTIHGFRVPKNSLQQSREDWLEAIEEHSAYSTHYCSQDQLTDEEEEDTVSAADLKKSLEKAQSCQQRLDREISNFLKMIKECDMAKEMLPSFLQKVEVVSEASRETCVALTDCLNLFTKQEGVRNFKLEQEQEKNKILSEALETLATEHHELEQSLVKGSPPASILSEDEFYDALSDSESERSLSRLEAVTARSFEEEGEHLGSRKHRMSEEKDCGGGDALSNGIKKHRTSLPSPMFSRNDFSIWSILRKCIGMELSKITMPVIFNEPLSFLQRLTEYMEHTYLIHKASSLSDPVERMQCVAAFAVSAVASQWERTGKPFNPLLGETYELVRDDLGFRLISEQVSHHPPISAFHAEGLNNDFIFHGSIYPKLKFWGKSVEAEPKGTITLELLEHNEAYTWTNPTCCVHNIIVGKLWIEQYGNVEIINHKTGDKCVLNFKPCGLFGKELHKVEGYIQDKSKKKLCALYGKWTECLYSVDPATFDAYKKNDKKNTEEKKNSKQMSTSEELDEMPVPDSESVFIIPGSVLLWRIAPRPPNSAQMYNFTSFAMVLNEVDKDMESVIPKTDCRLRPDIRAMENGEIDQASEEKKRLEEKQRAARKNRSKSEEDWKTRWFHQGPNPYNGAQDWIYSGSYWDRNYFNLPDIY

B1: His-RILP (natural protein, UniProt Q96NA2 1-401, looked up)
chain: MEPRRAAPGVPGWGSREAAGSASAAELVYHLAGALGTELQDLARRFGPEAAAGLVPLVVRALELLEQAAVGPAPDSLQVSAQPAEQELRRLREENERLRRELRAGPQEERALLRQLKEVTDRQRDELRAHNRDLRQRGQETEALQEQLQRLLLVNAELRHKLAAMQTQLRAAQDRERERQQPGEAATPQAKERARGQAGRPGHQHGQEPEWATAGAGAPGNPEDPAEAAQQLGRPSEAGQCRFSREEFEQILQERNELKAKVFLLKEELAYFQRELLTDHRVPGLLLEAMKVAVRKQRKKIKAKMLGTPEEAESSEDEAGPWILLSDDKGDHPPPPESKIQSFFGLWYRGKAESSEDETSSPAPSKLGGEEEAQPQSPAPDPPCSALHEHLCLGASAAPEA
notes: RILP in pET-28a; source: prokaryotic expressed, purified
B2: GST-VAPa(1-225aa) (domain or fragment, UniProt Q9P0L0 1-225, looked up)
chain: MASASGAMAKHEQILVLDPPTDLKFKGPFTDVVTTNLKLRNPSDRKVCFKVKTTAPRRYCVRPNSGIIDPGSTVTVSVMLQPFDYDPNEKSKHKFMVQTIFAPPNTSDMEAVWKEAKPDELMDSKLRCVFEMPNENDKLNDMEPSKAVPLNASKQDGPMPKPHSVSLNDTETRKLMEECKRLQGEMMKLSEENRHLRDEGLRLRKVAHSDKPGSTSTASFRDNVT
notes: VAP-A (vesicle-associated membrane protein-associated protein A) residues 1-225, the cytoplasmic region; subcloned into pGEX-4T-1; also called GST-tagged VAP-A(1-225aa); source: prokaryotic expressed, retained on GST beads (GST-Sepharose 4B resin)

Columns and labels:
His-ORP1L(336-950aa) = molecular target: T1, His-ORP1L(336-950aa); assay: pull-down; in vitro binding: purified prokaryotic expressed His-ORP1L or His-ORP1L(336-950aa) with increasing amounts of His-RILP, incubated with GST-VAPa(1-225aa) retained on GST beads; ORP1L bound assessed by Western blot; conditions: both partners purified
His-ORP1L = molecular target: T2, His-ORP1L; assay: as above; conditions: both partners purified

binding result (His-ORP1L(336-950aa))	binding result (His-ORP1L)	Binder
binds	–	B1
binds	binds	B2
